Publication PMC5024437

Molecular target: T1, mSos1 (human (endogenous in A549)), Q07889
T1 chain: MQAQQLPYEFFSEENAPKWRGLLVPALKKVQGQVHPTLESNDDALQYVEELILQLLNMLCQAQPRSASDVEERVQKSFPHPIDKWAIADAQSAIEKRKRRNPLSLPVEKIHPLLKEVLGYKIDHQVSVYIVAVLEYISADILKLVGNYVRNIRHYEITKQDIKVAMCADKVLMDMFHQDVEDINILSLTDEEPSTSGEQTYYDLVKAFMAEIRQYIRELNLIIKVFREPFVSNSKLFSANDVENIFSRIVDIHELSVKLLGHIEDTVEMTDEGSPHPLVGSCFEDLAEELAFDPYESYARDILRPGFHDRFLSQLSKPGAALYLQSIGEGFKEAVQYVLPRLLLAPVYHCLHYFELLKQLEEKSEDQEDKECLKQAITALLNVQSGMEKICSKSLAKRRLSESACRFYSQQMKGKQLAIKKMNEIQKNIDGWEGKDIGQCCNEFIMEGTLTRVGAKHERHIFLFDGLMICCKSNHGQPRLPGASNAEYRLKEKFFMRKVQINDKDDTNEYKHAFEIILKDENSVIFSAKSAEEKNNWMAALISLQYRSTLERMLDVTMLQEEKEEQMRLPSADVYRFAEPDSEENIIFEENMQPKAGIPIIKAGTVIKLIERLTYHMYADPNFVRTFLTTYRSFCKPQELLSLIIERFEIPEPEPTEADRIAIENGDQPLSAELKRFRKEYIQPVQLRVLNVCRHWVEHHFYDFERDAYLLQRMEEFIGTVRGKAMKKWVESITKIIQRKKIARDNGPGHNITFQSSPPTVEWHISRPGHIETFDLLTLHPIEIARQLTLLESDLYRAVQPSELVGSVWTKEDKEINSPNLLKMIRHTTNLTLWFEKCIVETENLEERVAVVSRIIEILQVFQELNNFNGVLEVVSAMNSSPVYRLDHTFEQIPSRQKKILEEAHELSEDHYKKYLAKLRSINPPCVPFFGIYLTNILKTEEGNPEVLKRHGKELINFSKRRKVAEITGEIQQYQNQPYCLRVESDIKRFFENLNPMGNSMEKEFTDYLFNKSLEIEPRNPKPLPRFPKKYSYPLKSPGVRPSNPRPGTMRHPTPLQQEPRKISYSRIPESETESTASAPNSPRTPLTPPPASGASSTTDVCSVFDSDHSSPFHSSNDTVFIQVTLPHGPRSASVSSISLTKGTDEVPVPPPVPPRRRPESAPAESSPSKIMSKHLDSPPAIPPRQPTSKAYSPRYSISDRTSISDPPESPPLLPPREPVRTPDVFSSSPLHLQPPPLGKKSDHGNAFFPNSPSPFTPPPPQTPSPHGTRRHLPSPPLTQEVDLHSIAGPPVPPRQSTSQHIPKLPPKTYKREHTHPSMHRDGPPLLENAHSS
Test: co-IP; A549 and A549 + ITSN-1s (stable myc-ITSN-1s) cell lysates, 500 ug total protein, lysis buffer 50 mM Tris-HCl pH 8.0, 150 mM NaCl, 1 % NP-40; IP with 3 ug mSos1 or Cbl Ab and protein A/G, WB with Rac1 or Eps8 Ab; densitometry as percentage of control
Settings: remark: other sources report otherwise

B1: Eps8, Q12929 1-822 (natural protein)
chain: MNGHISNHPSSFGMYPSQMNGYGSSPTFSQTDREHGSKTSAKALYEQRKNYARDSVSSVSDISQYRVEHLTTFVLDRKDAMITVDDGIRKLKLLDAKGKVWTQDMILQVDDRAVSLIDLESKNELENFPLNTIQHCQAVMHSCSYDSVLALVCKEPTQNKPDLHLFQCDEVKANLISEDIESAISDSKGGKQKRRPDALRMISNADPSIPPPPRAPAPAPPGTVTQVDVRSRVAAWSAWAADQGDFEKPRQYHEQEETPEMMAARIDRDVQILNHILDDIEFFITKLQKAAEAFSELSKRKKNKKGKRKGPGEGVLTLRAKPPPPDEFLDCFQKFKHGFNLLAKLKSHIQNPSAADLVHFLFTPLNMVVQATGGPELASSVLSPLLNKDTIDFLNYTVNGDERQLWMSLGGTWMKARAEWPKEQFIPPYVPRFRNGWEPPMLNFMGATMEQDLYQLAESVANVAEHQRKQEIKRLSTEHSSVSEYHPADGYAFSSNIYTRGSHLDQGEAAVAFKPTSNRHIDRNYEPLKTQPKKYAKSKYDFVARNNSELSVLKDDILEILDDRKQWWKVRNASGDSGFVPNNILDIVRPPESGLGRADPPYTHTIQKQRMEYGPRPADTPPAPSPPPTPAPVPVPLPPSTPAPVPVSKVPANITRQNSSSSDSGGSIVRDSQRHKQLPVDRRKSQMEEVQDELIHRLTIGRSAAQKKFHVPRQNVPVINITYDSTPEDVKTWLQSKGFNPVTVNSLGVLNGAQLFSLNKDELRTVCPEGARVYSQITVQKAALEDSSGSSELQEIMRRRQEKISAAASDSGVESFDEGSSH
For B1, which percent decrease of the co-precipitated complex in A549 + ITSN-1s cells against A549 cells is on record?
The percent decrease of the co-precipitated complex in A549 + ITSN-1s cells against A549 cells was 54%.
